One series concerns SCC-hIGF2R cells. Kind of series: Kinetic internalization assay on SCC-hIGF2R cells. Format: cell-based, human. The protocol:
(§1) The rate of internalization (endocytic rate constant, ke) of biparatopic constructs 13F11-13E8 and 13E8-13F11 was determined with a kinetic internalization assay on SCC-hIGF2R and SCC-rIGF2R cells. Briefly, 10 nM of IRD800CW conjugated 13F11-13E8 or 13E8-13F11 (conjugation method as described in example 10.2) was added to hIGF2R expressing SCC cells or rIGF2R expressing SCC cells and incubated at 37° C. for different time points up to 12 minutes. Internalization was then purposely halted by putting the cells on ice. Subsequently, cells were washed with cold PBS and the non-internalized VHH construct (bound fraction) was separated from the internalized construct (internalized fraction) using an acid-wash, as described above, after which the fluorescence of both fractions were measured. Both constructs internalize with similar endocytic rate constants in SCC-hIGF2R cells (ke around 1.5 min-1) and in SCC-rIGF2R cells (ke around 0.7 min-1) (FIGS. 17A and B, respectively).
(§2) Internalization of 13F11-13E8 and the corresponding monomeric VHHs 13F11 and 13E8 was assessed in a similar assay (FIG. 17A-C).

A short description of series [1]: Biodistribution by whole-body PET of 89Zr-labelled constructs. Particulars: 89Zr-desferral labelled, i.v., rats. It is filed as in vivo. How it is done: (§3) The in vivo pharmacokinetic properties of 13F11-13E8-ABD (F11E8-ABD; with ABD) and 13F11-13E8 (F11E8; without ABD) were compared in healthy Sprague-Dawley rats. In brief, rats were dosed intravenously with approximately 3 mg/kg body weight and blood samples were taken at different time points and the concentration of the VHH constructs were determined using an ELISA on immobilized hIGF2R-ECD. […] To further confirm the functionality of the ABD, biodistribution of F11E8-ABD and F11E8 were assessed by means of Positron Emission Tomography (PET). In brief, the constructs were radio-labelled with the positron emitter ^89Zr-desferral according to Verel et al (J Nucl Med. 2003; 44:1271-1281), and administered intravenously to rats after which biodistribution was assessed on subsequent time points by whole-body PET.

The subject of series [2] is SCC cells expressing mIGF2R. The series can be described thus: Kinetic internalization assay on SCC cells expressing mIGF2R. It is filed as cell-based, murine. The following applies: IRDye800 conjugates, FIG. 17C left panel. How it is done: as §1, §2
A short description of series [3]: In vivo pharmacokinetics in rats, serum ELISA on hIGF2R-ECD. More on the design: species or system Sprague-Dawley rats. Particulars: rats, i.v., approximately 3 mg/kg; ELISA LOD approximately 20 nM. The protocol:
as §3

The next series concerns SCC-rIGF2R cells. Kind of series: Kinetic internalization assay on SCC-rIGF2R cells. It is filed as cell-based, rat. The protocol: as §1, §2
In series [4] the test system is A549 cells that endogenously express hIGF2R. The series can be described thus: Internalization by fluorescence microscopy after acid wash, A549 cells. Particulars: 25 nM Alexa fluor 647 conjugate. Format: cell-based, human. How it is done:
(§4) First, Alexa fluor 647-conjugates of the VHH 13F11 and the biparatopic VHH construct […] were added to A549 cells that endogenously express hIGF2R (FIG. 16A), NIH 3T3 2.2 cells that were transiently transfected with hIGF2R (FIG. 16B), or mock transfected NIH 3T3 2.2 cells (as a negative control). For this, the cells were incubated with 25 nM of the VHH or the VHH construct. Before fluorescent microscopy readout, to ensure that only signal of internalized VHH or mouse anti-IGF2R was present, an acid wash (0.2M glycine-HCl, 150 mM NaCl, pH 2.3) was used to remove VHH or mouse anti-IGF2R bound to the target receptors on the cell surface. The efficiency of the acid wash procedure was verified by incubating the hIGF2R transfected NIH 3T3 2.2 cells with 13F11-13E8-A647 on ice and subsequently treating these cells with an acid wash while remaining on ice to prevent internalization (FIG. 16D). […] Summarizing, biparatopic 13F11-13E8 clearly internalizes in cells expressing hIGF2R on the cell surface.

Series [5] deals with mock transfected NIH 3T3 2.2 cells. Kind of series: Internalization by fluorescence microscopy after acid wash, mock transfected cells. It is filed as cell-based. Particulars: 25 nM Alexa fluor 647 conjugate, negative control cells. The protocol:
as §4

Series [6] has as its system NIH 3T3 2.2 cells that were transiently transfected with hIGF2R. Kind of series: Internalization by fluorescence microscopy after acid wash, hIGF2R-transfected NIH 3T3 2.2 cells. Format: cell-based, human. Particulars: 25 nM Alexa fluor 647 conjugate. How it is done: as §4
Series [7] relates to LX2 cells (an activated hepatic stellate cell line). Kind of series: Live imaging of internalization with pHrodo-red conjugates in LX2 cells. The following applies: 50 nM pHrodo-red conjugate. Format: cell-based, human. An excerpt:
Internalization of monovalent 13F11 and biparatopics 13F11-13E8 and 13E8-13F11 was finally assessed in LX2 cells (an activated hepatic stellate cell line). For live imaging of internalization, the pH dependent Phrodo probe was used (ThermoFisher Scientific). This pH dependent probe becomes more fluorescent at acidic pH. Endosomes and lysosomes have a pH maintained at 6.5 and 4.5, respectively, compared to cytoplasmic pH of 7.0, and thus internalization of a VHH-pHrodo construct can be visualized when it internalizes via the endosomal pathway. LX-2 cells were incubated at 37° C. for 2 hours with 50 nM of pHrodo-red conjugated 13F11, 13F11-13E8 and 13E8-13F11 (conjugation method as described in example 10.2). Images were taken at 5 min. intervals using a wide-field PEXScope microscope (Nikon) with a mCherry filter and 40× oil objective.

[8] abbreviates: 10 nM IRD800CW conjugate, 37° C., up to 12 minutes.

B1: 13F11-13E8: biparatopic IGF2R VHH construct, 13F11 and 13E8 fused with (Gly-Gly-Gly-Gly-Ser)3 linker, C-terminal cysteine (protein)
chain: EVQLVESGGRLVQPGDSLRLSCAASGRTFSDNAMGWFRQAPGKERRFVAGISWAGGSTYYSDSVKGRFTISRDNAKNTVYLQMNSLKPEDTAVYYCAAGLRAWVQRMPKDYNYWGQGTQVTVSSGGGGSGGGGSGGGGSEVQLVESGGGLVQAGGSLRLSCAASRSISPMGWYRQAPGKQRELVAIMPSSGPPIYADSVQGRFTISRDNAKNTVYLQMNSLKPEDTAVYYCNVGGGYWGQGTQVTVSS
modifications: left off: small tags and cut ends
notes: biparatopic IGF2R VHH construct, 13F11 and 13E8 fused with (Gly-Gly-Gly-Gly-Ser)3 linker, C-terminal cysteine
For B1, the “endocytic rate constant, ke” value in the series with SCC-hIGF2R cells (setting [8]) was “around 1.5 min-1”; in the series with SCC-rIGF2R cells (setting [8]) it was “around 0.7 min-1”. For the same molecule, the “internalization compared to the monomeric VHHs” value in the series with SCC-hIGF2R cells (IRDye800 conjugates, FIG. 17C right panel) is given as “superior internalization”; in [2] it was “superior internalization”; in the series on SCC-rIGF2R cells (IRDye800 conjugates, FIG. 17C middle panel) it was “superior internalization”. In addition, the “biodistribution (PET)” value in series [1] is given as “swiftly accumulated in the kidneys”. For the same molecule, the “clearance from circulation / detectability in serum” value in [3] was “could not be detected anymore within two hours after injection”. Also, the internalization result is on record as “clearly internalized” in series [4], “no internalization was observed” in [5] and “superior internalization” in series [6]. Further, the “intracellular localisation of internalized construct” value in series [7] is “accumulate into perinuclear compartments (endosomes/lysosomes)”. Further, the “increase in intracellular fluorescence (internalization)” value in [7] (37° C., compared to monovalent 13F11 / between biparatopics) was “higher rate of internalization”.

The values are drawn from patent publication US20240325562A1, “INTERNALIZING BINDING MOLECULES” (LinXis B.V., priority 2020, published 2024).
